Measured values: patent US20210147523A1 (TEIJIN PHARMA, published 2021)

How the values were obtained:
Assay in all cases: flow cytometry
human SPNS2 Q190A mutant = target: T1, human SPNS2 Q190A mutant (human, UniProt Q8IVW8 1-549)
T1 sequence: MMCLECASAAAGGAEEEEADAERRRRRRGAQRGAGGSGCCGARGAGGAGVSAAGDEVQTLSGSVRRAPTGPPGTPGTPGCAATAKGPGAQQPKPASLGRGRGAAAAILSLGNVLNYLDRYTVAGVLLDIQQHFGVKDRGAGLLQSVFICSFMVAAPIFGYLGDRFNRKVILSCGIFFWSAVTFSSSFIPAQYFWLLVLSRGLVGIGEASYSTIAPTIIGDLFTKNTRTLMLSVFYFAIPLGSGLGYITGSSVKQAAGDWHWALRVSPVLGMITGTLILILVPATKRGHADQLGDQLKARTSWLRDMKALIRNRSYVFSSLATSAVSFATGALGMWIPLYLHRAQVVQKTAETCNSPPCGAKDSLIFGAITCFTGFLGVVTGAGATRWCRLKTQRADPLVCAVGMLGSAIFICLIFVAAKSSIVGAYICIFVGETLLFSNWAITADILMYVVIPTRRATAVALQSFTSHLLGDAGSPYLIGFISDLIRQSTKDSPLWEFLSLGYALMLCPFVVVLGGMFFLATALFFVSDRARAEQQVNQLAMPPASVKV

human SPNS2 Q131A mutant = target: T2, human SPNS2 Q131A mutant (human, UniProt Q8IVW8 1-549)
T2 sequence: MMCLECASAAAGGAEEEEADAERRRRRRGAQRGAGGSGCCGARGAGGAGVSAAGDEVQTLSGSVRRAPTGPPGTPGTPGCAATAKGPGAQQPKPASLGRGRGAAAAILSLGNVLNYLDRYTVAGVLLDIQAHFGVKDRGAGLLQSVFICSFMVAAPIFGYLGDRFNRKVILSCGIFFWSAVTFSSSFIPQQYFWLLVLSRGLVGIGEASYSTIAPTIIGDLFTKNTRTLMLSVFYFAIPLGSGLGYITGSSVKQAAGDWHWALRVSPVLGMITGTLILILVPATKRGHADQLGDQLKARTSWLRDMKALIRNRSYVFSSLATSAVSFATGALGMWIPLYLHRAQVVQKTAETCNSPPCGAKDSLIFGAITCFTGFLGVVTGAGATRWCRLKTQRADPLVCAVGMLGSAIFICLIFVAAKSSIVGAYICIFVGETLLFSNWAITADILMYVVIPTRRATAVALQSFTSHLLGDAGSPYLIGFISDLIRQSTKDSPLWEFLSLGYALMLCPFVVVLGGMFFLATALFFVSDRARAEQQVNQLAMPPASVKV

human SPNS2 D128A mutant = target: T3, human SPNS2 D128A mutant (human, UniProt Q8IVW8 1-549)
T3 sequence: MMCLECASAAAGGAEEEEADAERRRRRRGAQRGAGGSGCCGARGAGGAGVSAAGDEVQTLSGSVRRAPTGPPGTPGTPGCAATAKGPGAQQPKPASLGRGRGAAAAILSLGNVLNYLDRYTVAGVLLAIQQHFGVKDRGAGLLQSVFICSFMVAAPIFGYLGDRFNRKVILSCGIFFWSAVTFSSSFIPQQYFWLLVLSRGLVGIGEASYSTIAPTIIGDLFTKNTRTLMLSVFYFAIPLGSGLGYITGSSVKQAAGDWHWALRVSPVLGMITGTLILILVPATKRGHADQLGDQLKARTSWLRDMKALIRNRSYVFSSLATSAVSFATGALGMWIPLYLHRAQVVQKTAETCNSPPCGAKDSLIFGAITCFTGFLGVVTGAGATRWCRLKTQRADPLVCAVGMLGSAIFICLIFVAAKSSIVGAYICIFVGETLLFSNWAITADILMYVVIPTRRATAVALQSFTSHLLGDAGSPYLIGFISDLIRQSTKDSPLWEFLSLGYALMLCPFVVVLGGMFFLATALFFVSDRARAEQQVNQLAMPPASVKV

human SPNS2 Q130A mutant = target: T4, human SPNS2 Q130A mutant (human, UniProt Q8IVW8 1-549)
T4 sequence: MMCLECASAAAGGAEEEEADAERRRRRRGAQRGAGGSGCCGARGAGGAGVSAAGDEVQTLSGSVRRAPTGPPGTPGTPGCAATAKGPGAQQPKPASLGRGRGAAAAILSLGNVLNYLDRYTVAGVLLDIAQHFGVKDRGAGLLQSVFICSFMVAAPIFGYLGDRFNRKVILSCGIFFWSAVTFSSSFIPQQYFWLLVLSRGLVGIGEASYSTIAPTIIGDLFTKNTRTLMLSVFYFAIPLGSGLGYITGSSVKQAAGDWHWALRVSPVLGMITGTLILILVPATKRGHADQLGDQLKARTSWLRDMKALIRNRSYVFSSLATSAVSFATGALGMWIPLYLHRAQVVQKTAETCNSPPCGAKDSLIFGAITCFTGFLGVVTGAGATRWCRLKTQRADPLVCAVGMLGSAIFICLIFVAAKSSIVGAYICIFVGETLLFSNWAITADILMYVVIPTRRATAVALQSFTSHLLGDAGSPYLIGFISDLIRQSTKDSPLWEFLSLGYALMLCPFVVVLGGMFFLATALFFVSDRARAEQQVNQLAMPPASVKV

human SPNS2 I129A mutant = target: T5, human SPNS2 I129A mutant (human, UniProt Q8IVW8 1-549)
T5 sequence: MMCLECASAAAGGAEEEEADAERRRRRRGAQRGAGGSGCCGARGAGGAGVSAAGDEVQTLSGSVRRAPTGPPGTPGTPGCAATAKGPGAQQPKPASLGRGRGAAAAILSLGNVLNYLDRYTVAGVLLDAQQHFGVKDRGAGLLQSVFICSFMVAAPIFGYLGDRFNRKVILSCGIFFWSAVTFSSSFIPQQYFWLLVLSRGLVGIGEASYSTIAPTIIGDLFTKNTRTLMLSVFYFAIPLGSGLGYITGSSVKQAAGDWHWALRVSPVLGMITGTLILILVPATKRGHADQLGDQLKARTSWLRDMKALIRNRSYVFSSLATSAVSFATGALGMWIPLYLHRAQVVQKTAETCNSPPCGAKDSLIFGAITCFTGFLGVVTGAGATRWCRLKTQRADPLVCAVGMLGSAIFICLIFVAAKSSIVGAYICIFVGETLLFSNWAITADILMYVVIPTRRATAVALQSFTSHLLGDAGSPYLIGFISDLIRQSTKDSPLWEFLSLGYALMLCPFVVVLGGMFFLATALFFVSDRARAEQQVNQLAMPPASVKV

B1: 93-1310F (antibody, IgG2b, V domains shown)
VH: EVQLVETGGGLVQPGSSLKLSCATSGFTFSDTWMSWVRQAPGKGLEWVALIKDKNSNYEANYAESVKGRFTISRDDSKRRVYLQMFTLRDQDTATYYCTSHEDFYYYSSYYFDYWGHGVMVTVSS
VL: DIVLTQSPATLSVTPGESVSLSCRASQGISTSIHWYQQKSNGSPRLLIKYASQSISGIPSRFSGSGSGTDFTLRINRVESEDFSVYYCQQTYSLPLTFGSGTRLEIKR
For B1, the “binding ratio vs native type” value (human SPNS2 Q190A mutant) was < 0.5 ratio.

B2: 96-1403F (antibody, IgG2b, V domains shown)
VH: EVQLVETGGGLVRPGSSLKLSCATSGFTFSDTWMSWVRQAPGKGLEWVALIKDKNSNSEANYAESIKGRFTISRDDSKSRVYLQMNTLRDQDTATYYCTRHEDFYYYSGYYFDYWGQGVMVTVSS
VL: DIVLTQSPPTLSVTPGESVSLSCRASQGISTSIHWYQQRSNESPRLLIKYASQSIAGIPSRFSGSGSGTDFILSINRVESEDFSVYYCQQTYSLPLTFGPGTKLEVKR
B2 was tested, and the “binding ratio vs native type” value (human SPNS2 Q190A mutant) was < 0.5 ratio.

B3: 64-0807A (antibody, IgG2b, V domains shown)
VH: EVQVVESGGGLVQPGRSMKLSCAALGFTFRDYYMAWVRQTPTKGLEWVAAISTGGGNTYYRDSVKGRFTISRDNAKSTLYLQMDSLRSDDTATYYCARNPYGNYFDYWGQGVMVTVSS
VL: QFVLSQPNSVSTNLGSTVKLSCKRSTGNIGSNYVHWYQRHEGRSPTTLIYRDDKRPNGVPDRFSGSIDRSSNSALLTINNVQTEDEADYFCQSYSGGMYLFGGGTKLTVL
For B3, the “binding ratio vs native type” value (human SPNS2 Q131A mutant) was < 0.5 ratio.

B4: 37-0511F (antibody, IgG2b, V domains shown)
VH: EVHLQQSGAALVRPRASVKLSCKVSGDSISRYYVHFVKQRPGQGLEWIGRIDPEDDTTKYSEKFKNRATLTADASSDTASLILSGLTSDDTATYFCSTLTGLDYWGQGVMVTVSS
VL: DIQMTQSPPVLSTSVGDRVTLRCKPSQNVHSKLDWYQQKHGEAPKLLIYYTHNLQTGIPSRFSGSGSGTDYTLTISSLQPEDVATYYCFQYYSGWTFGGGTKLEMKR
B4 was tested, and the “binding ratio vs native type” value (human SPNS2 D128A mutant) was < 0.5 ratio.

B5: 53-0707E (antibody, IgG2b, V domains shown)
VH: EVQLQQSGAELVRPRTSVKLSCKVSGDSITRYYVHFVKQRPGQGLEWIGRIDPEDDTTKYSEKFKKKATLTADASSNTAYLIFSGLTSEDTATYFCSTLTGLDYWGQGVMVTVSS
VL: DIQMTQSPPVLSTSVGDRVTLRCKASQNVHSKLDWYQQKHGEAPKLLIYYTHNLQTGIPSRFSGSGSGTDYTLTISSLQPEDVATYYCFQYYSGWTFGGGTKLEMKR
B5 was tested, and the “binding ratio vs native type” value (human SPNS2 D128A mutant) was < 0.5 ratio.

B6: 50-0704C (antibody, IgG2b, V domains shown)
VH: EVQLVGSGGGLVQPGRSMKLSCEASGFTFSNHYMAWVRQAPTKGLEWVATISTGGGNTYYRDSVKGRFTISRDNARSTLSLQMDSLRSEDTATYYCARQDYSNYMGGFAYWGQGTLVTVSS
VL: QFVLTQPNSVSTNLGSTVKLSCTRSIGNIGNNYVNWYKQYEGRSPTTMIYRDDERPDGVPDRFSGSIDRSSNSALLTINSVQTEDEADYFCQSFSSGIFIFGGGTKLTVL
For B6, the “binding ratio vs native type” value (human SPNS2 Q130A mutant) was < 0.5 ratio.

B7: 49-0703G (antibody, IgG2b, V domains shown)
VH: EVQLVESGGGLVQPGRSMKLSCAASGFTFSNHYMAWVRQAPTKGLEWVASISTGGGNTYYRDSVKGRFTISRDNAKSTLYLQMDSLRSEDTATYYCARQDYSNYMGGFAYWGQGTLVTVSS
VL: QFVLTQPNSVSTNLGSTVKLSCKRSTGNIGNNYVNWYQQYEGRSPTTMIYRDDERPDGVPDRFSGSIDRSSNSALLTINNVQTEDEADYFCQSFSNGMFIFAGGTQLTVL
With B7 the “binding ratio vs native type” value (human SPNS2 Q130A mutant) was < 0.5 ratio.

B8: 18-0211B (antibody, IgG2b, V domains shown)
VH: AVQLVGSGGGLVQPGRSMKLSCEASGFTFSNHYMAWVRQAPTRGLEWVATISTGGGNTYYRDSVKGRFTISRDNTRSTLSLQMDSLRSEDTATYYCTRQDYTNYMGGFAYWGQGTLVTVSS
VL: QFVLTQPNSVSTNLGSTVKLSCTRSIGNIGNNYVNWYKQYEGRSPTTLIYRDDERPDGVPDRFSGSIDRSSNSALLTINSVQTEDGADYFCQSFSSGIFIFGGGTTLTVL
B8 was tested, and the “binding ratio vs native type” value (human SPNS2 Q130A mutant) was < 0.5 ratio.

B9: 65-0810G (antibody, IgG2b, V domains shown)
VH: EVHLVESGGGLVQPGRSMKLSCTASGFTFNNYYMAWVRQAPTKGLEWVASISTGGGYTYYRDSVKGRFTISRDNTGNTLYLQMDSLRSEDTATYYCARCWELPYWGQGVMVTVSS
VL: QFVLTQPNSVSTNLGSTVKLSCRRSSGNIGNNYVNWYRQHEGRSPTTMIYRDDTRPDGVPNRFSGSIDRSSNSALLTINNVRPEDEAYYFCQSYSGSIYIFGGGTKLTVL
In the case of B9, the “binding ratio vs native type” value (human SPNS2 I129A mutant) is reported as < 0.5 ratio and the “binding ratio vs native type” value (human SPNS2 Q131A mutant) is reported as < 0.5 ratio.
